Where a chain is given by its changes, count along the chain named. Numbers in names are those of the source.

The values that follow come from PMC9734150, “Allosteric rescue of catalytically impaired ATP phosphoribosyltransferase variants links protein dynamics to active-site electrostatic preorganisation” (Nature Communications, 2022).

T1: R56K-PaHisGS (Psychrobacter arcticus, UniProt Q4FQF7 1-231, R56K)
T1 sequence: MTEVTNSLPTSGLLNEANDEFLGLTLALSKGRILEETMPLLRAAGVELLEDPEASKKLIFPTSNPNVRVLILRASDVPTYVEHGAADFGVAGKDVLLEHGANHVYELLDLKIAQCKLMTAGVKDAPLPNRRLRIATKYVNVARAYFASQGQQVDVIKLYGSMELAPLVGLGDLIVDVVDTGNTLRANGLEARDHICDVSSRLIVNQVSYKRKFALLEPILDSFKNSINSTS

T2: R56A-PaHisGS (Psychrobacter arcticus, UniProt Q4FQF7 1-231, R56A)
T2 sequence: T1 sequence with K56A

T3: WT-PaHisGS (Psychrobacter arcticus ATP phosphoribosyltransferase catalytic subunit HisGS) (Psychrobacter arcticus, UniProt Q4FQF7 1-231)
T3 chain: T1 sequence with K56R

T4: R32A-PaHisGS (Psychrobacter arcticus, UniProt Q4FQF7 1-231, R32A)
T4 sequence: T1 sequence with R32A, K56R

B1: PaHisZ (Psychrobacter arcticus ATP phosphoribosyltransferase regulatory protein HisZ) (natural protein)
chain: MLPDGVADVLFEDAHKQEVLRHQLTQQLITHGYQLVSPPMIEFTESLLSGASEDLKRQTFKIIDQLTGRLMGIRADITPQILRIDAHHGGDGIARYCYAGDVIHTLPSGLFGSRTPLQLGAEIFGCESIAADIELIDVLFSMINSLDMSAVLHVDLGHVTIFKRLAELAALSASDTEQLMQLYANKNLPELKQVCQVLPMGSDFYTLARFGHDIANLLGRLSENAQQDTKIVTAIDELQRLKAHLQVQWQCAVSIDVTELSGYHYHTGIVFNGYINSETQPLVRGGRFDGMKSNQLATNQPRQATGFSMDVSRLLAHTQLDAPFIVLIDYDAFNNLDSAQRQLLLQQVASLRQQGYRVTMPLTAEDMPVGLTHRLSLADNQWRLHAV
notes: HisZ, regulatory subunit of short-form ATP phosphoribosyltransferase, Psychrobacter arcticus; also called WT-PaHisZ
B2: R56A-PaHisGS (enzyme, Psychrobacter arcticus)
chain: T1 sequence with K56A
notes: HisGS, Psychrobacter arcticus, with R56A; made from the WT-PaHisGS expression vector
B3: R32A-PaHisGS (enzyme, Psychrobacter arcticus)
chain: T1 sequence with R32A, K56R
notes: HisGS, Psychrobacter arcticus, with R32A; made from the WT-PaHisGS expression vector
B4: WT-PaHisGS (Psychrobacter arcticus ATP phosphoribosyltransferase catalytic subunit HisGS) (enzyme)
chain: T1 sequence with K56R
notes: HisGS, catalytic subunit of short-form ATP phosphoribosyltransferase, Psychrobacter arcticus
B5: R56A/K57A-PaHisGS (enzyme, Psychrobacter arcticus)
chain: T1 sequence with K56A, K57A
notes: HisGS, Psychrobacter arcticus, with R56A and K57A; made from the WT-PaHisGS expression vector
B6: C115S-PaHisGS (enzyme, Psychrobacter arcticus)
chain: T1 sequence with K56R, C115S
notes: HisGS, Psychrobacter arcticus, with C115S; made from the WT-PaHisGS expression vector

In series [1] the target is WT-PaHisGS (Psychrobacter arcticus ATP phosphoribosyltransferase catalytic subunit HisGS) (Psychrobacter arcticus) (UniProt Q4FQF7). As to the kind of experiment: enzyme activity titration (initial rate against HisZ concentration); apparent KD; fixed PaHisGS variant, HisZ (PaHisZ, His-tagged PaHisZ or AbHisZ) varied; initial velocities at 20 °C in 100 mM tricine, 100 mM KCl, 15 mM MgCl2, 4 mM DTT, pH 8.5, 5.6 mM ATP, 2 mM PRPP; fit to Eq. (3), or to Eq. (5) for R56A-PaHisGS with AbHisZ.

Series [2] deals with R56A-PaHisGS (Psychrobacter arcticus) (UniProt Q4FQF7).
Series [3] deals with WT-PaHisGS (Psychrobacter arcticus ATP phosphoribosyltransferase catalytic subunit HisGS) (Psychrobacter arcticus) (UniProt Q4FQF7).
Series [4] deals with B3. As to the kind of experiment: cell-based or functional assay.
Series [5] has as its target B4. As to the kind of experiment: cell-based or functional assay.
The series “C115S-PaHisGS” concerns the target B6. The series can be described thus: cell-based or functional assay.
The series “R56A/K57A-PaHisGS” concerns the target B5. The series can be described thus: cell-based or functional assay.
For series [6], the target named is B2. As to the kind of experiment: cell-based or functional assay.
The next series addresses T1, R56K-PaHisGS. As to the kind of experiment: cell-based or functional assay.
Series [7] deals with the molecule itself. The series can be described thus: crystal structure; R56A-PaATPPRT (R56A-PaHisGS with PaHisZ) crystals soaked in PRPP and ATP; molecular replacement with PDB 6FU2.
In series [8] the target is T2, R56A-PaHisGS.
Series [9] addresses T3, WT-PaHisGS (Psychrobacter arcticus ATP …).
In series [10] the target is T4, R32A-PaHisGS.
Series [11] concerns the molecule itself. The series can be described thus: SEC; Superdex 200 10/300 GL, 4 °C, 20 mM HEPES pH 8.0; 1 mg/mL protein pre-incubated with 2 mM DTT. Background: In gel filtration, larger molecules generally elute earlier.
The target in series [12] is B1. The series can be described thus: enzyme activity titration (initial rate against HisZ concentration); apparent KD; fixed PaHisGS variant, HisZ (PaHisZ, His-tagged PaHisZ or AbHisZ) varied; initial velocities at 20 °C in 100 mM tricine, 100 mM KCl, 15 mM MgCl2, 4 mM DTT, pH 8.5, 5.6 mM ATP, 2 mM PRPP; fit to Eq. (3), or to Eq. (5) for R56A-PaHisGS with AbHisZ. The conditions noted are these: both partners purified.

The target of series [13] is AbHisZ (Acinetobacter baumannii HisZ). The series can be described thus: enzyme activity titration (initial rate against HisZ concentration); apparent KD; fixed PaHisGS variant, HisZ (PaHisZ, His-tagged PaHisZ or AbHisZ) varied; initial velocities at 20 °C in 100 mM tricine, 100 mM KCl, 15 mM MgCl2, 4 mM DTT, pH 8.5, 5.6 mM ATP, 2 mM PRPP; fit to Eq. (3), or to …. As to conditions: other: enzyme activity titration (initial rate against HisZ concentration).

Take “AbHisZ (Acinetobacter baumannii HisZ) (natural protein)”: the Kd in [1] is 9000 nM. Moreover, the apparent kcat of the R56A-PaHisGS/AbHisZ hybrid complex in series [2] amounted to 0.22 s⁻¹. In [3], the apparent kcat of the WT-PaHisGS/AbHisZ hybrid complex came to 1.49 s⁻¹.
In the case of B1, the “Activation by PaHisZ: ratio of kcat of PaATPPRT variant to v/ET of the PaHisGS mutant alone” value stood at 208 fold with R32A-PaHisGS [4], 1860 fold in the series with C115S-PaHisGS, 521 fold with R56A/K57A-PaHisGS and 250 fold with R56A-PaHisGS [6]. Besides, the “Activation by PaHisZ: ratio of kcat of PaATPPRT to v/ET of PaHisGS alone” value in series [5] came out at 29 fold. Moreover, the “activation of the R56K-PaHisGS (6 µM) reaction rate by PaHisZ (20 µM)” value with R56K-PaHisGS was approximately 11 fold. Further, the binding result in series [7] is listed as “binds”. Moreover, the Kd turned out to be 200 nM in the series with R56A-PaHisGS [8], 60 nM in series [9] and 30 nM with R32A-PaHisGS [10].
For the molecule B2, the stoichiometry N (usually a count of units in the complex or per binding partner) in series [11] is 2. For the same molecule, the Kd in series [12] worked out at 4000 nM. Besides, the “K0.5 (concentration of AbHisZ at the inflection point, Eq. 5)” value in series [13] was determined as 8.1 ± 0.4 µM.
In the case of B3, the “stoichiometry N” value in series [11] amounted to 2. In addition, in series [12], the Kd worked out at 490 nM.
Regarding B4, the “stoichiometry N” value in [11] was found to be 2. For the same molecule, in [12], the Kd came out at 440 nM.
In the same order, the values of B5 are 2 and 5000 nM.
In the case of B6, in series [11], the “stoichiometry N” value was 2. Further, the Kd in [12] came out at 1700 nM.
